Tests used:
GST-USP12WT (24-370) = GST-USP12WT (24-370) (human, UniProt O75317 24-370); assay: SPR
His-USP1 (21-785) = target: T1, His-USP1 (21-785) (human, UniProt O94782 21-785); assay: SEC-MALS
T1 sequence (looked up): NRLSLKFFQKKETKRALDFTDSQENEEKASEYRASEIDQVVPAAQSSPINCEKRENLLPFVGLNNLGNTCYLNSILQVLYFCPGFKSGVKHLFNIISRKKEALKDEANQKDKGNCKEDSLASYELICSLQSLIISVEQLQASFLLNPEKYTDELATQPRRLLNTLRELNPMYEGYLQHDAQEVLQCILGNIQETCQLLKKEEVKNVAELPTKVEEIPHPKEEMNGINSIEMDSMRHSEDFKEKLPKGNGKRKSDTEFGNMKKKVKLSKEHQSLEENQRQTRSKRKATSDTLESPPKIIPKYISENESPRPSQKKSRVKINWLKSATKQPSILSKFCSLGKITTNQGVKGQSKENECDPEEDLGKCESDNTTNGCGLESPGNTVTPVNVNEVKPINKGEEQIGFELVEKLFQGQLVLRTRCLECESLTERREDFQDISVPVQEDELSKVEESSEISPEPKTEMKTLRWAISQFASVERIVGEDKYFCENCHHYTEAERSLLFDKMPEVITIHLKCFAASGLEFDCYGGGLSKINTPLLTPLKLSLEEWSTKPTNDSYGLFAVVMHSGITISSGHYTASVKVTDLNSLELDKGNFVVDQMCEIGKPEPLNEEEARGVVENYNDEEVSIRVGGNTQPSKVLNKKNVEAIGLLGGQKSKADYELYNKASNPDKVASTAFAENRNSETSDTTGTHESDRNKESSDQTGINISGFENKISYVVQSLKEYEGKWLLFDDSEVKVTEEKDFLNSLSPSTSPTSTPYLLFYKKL

Sequence of GST-USP12WT (24-370) (O75317 24-370): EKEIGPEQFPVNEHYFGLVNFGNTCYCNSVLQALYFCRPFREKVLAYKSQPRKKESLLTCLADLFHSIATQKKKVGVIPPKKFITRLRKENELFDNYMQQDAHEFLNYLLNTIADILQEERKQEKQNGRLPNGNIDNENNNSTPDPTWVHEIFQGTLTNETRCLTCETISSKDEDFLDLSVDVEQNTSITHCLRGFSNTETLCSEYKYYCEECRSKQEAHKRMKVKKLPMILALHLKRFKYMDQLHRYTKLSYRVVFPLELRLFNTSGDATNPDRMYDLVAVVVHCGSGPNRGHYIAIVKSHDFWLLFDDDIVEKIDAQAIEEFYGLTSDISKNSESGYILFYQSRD

B1: UAF1FL, UAF1 (9-677) (natural protein)
chain: not shown
Kd of the second binding event (GST-USP12WT (24-370)): 325 nM
stoichiometry N (His-USP1 (21-785)): 2 UAF1 per USP1

Source: article PMC5131612 (Journal of Structural Biology, 2016)
